Seven sequences from the supplement of paper PMC5998384 can be followed below.

Data set [1] concerns HeLa Kyoto. As to the kind of experiment: melting temperature (median over replicates), in situ; higher = more thermally stable.
The test system of data set [2] is HeLa Kyoto. The data set is described as follows: solubility change mitosis vs G1/S (difference of NP-40 vs SDS log2 ratios) (log2 ratio difference); higher = more soluble in mitosis.
Data set [3] concerns HeLa Kyoto. The data set is described as follows: thermal stability score vs G1/S (z-score of summed log2 fold changes over temperatures); higher = more thermally stable than in G1/S.
The test system of data set [4] is HeLa Kyoto. The data set is described as follows: solubility in G1/S (NP-40 vs SDS abundance) (log2 ratio); higher = more soluble. Conditions: cell cycle stage: G1/S.
[5] abbreviates: cell cycle stage: early G1 (4.5 h after nocodazole release).
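Throughout, for melting temperature (median over replicates), in situ: HeLa Kyoto cells synchronized by double thymidine or nocodazole block, proteins quantified by TMT10plex mass spectrometry, three independent biological replicates.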
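Throughout, for solubility change mitosis vs G1/S (difference of NP-40 vs SDS log2 ratios): synchronized HeLa Kyoto cells (double thymidine block for G1/S, nocodazole release for mitosis), protein amounts in NP-40 versus SDS lysates quantified by mass spectrometry, three biological replicates.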
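Throughout, for solubility in G1/S (NP-40 vs SDS abundance): HeLa Kyoto cells arrested at G1/S by double thymidine block, proteins quantified by TMT10plex mass spectrometry in mild NP-40 versus SDS extracts, three biological replicates.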
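Throughout, for thermal stability score vs G1/S (z-score of summed log2 fold changes over temperatures): synchronized HeLa Kyoto cells, proteins quantified by TMT10plex mass spectrometry, three biological replicates, mitosis taken 0.5 h after nocodazole release, G1/S directly after double thymidine block.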

As for “MDEMATTQISKDELDELKEAFAKVDLNSNGFICDYELHELFKEANMPLPGYKVREIIQKLMLDGDRNKDGKISFDEFVYIFQEVKSSDIAKTFRKAINRKEGICALGGTSELSSEGTQHSYSEEEKYAFVNWINKALENDPDCRHVIPMNPNTDDLFKAVGDGIVLCKMINLSVPDTIDERAINKKKLTPFIIQENLNLALNSASAIGCHVVNIGAEDLRAGKPHLVLGLLWQIIKIGLFADIELSRNEALAALLRDGETLEELMKLSPEELLLRWANFHLENSGWQKINNFSADIKDSKAYFHLLNQIAPKGQKEGEPRIDINMSGFNETDDLKRAESMLQQADKLGCRQFVTPADVVSGNPKLNLAFVANLFNKYPALTKPENQDIDWTLLEGETREERTFRNWMNSLGVNPHVNHLYADLQDALVILQLYERIKVPVDWSKVNKPPYPKLGANMKKLENCNYAVELGKHPAKFSLVGIGGQDLNDGNQTLTLALVWQLMRRYTLNVLEDLGDGQKANDDIIVNWVNRTLSEAGKSTSIQSFKDKTISSSLAVVDLIDAIQPGCINYDLVKSGNLTEDDKHNNAKYAVSMARRIGARVYALPEDLVEVKPKMVMTVFACLMGRGMKRV [PLS3]”, the melting temperature worked out at 54.9 °C in the data set with HeLa Kyoto [1] (cell cycle stage: G1/S) and 54.5 °C in the data set on HeLa Kyoto [1] (cell cycle stage: mitosis). In addition, the “solubility change mitosis (log2)” value in the data set with HeLa Kyoto [2] is 0.00363. In addition, the values for the thermal stability score in the data set on HeLa Kyoto [3] (setting [5]) and in the data set with HeLa Kyoto [3] (cell cycle stage: mitosis) were 1.07 and 1.27, respectively. Also, the “solubility in G1/S (log2)” value in the data set with HeLa Kyoto [4] worked out at 0.439.

As to “MDEQALLGLNPNADSDFRQRALAYFEQLKISPDAWQVCAEALAQRTYSDDHVKFFCFQVLEHQVKYKYSELTTVQQQLIRETLISWLQAQMLNPQPEKTFIRNKAAQVFALLFVTEYLTKWPKFFFDILSVVDLNPRGVDLYLRILMAIDSELVDRDVVHTSEEARRNTLIKDTMREQCIPNLVESWYQILQNYQFTNSEVTCQCLEVVGAYVSWIDLSLIANDRFINMLLGHMSIEVLREEACDCLFEVVNKGMDPVDKMKLVESLCQVLQSAGFFSIDQEEDVDFLARFSKLVNGMGQSLIVSWSKLIKNGDIKNAQEALQAIETKVALMLQLLIHEDDDISSNIIGFCYDYLHILKQLTVLSDQQKANVEAIMLAVMKKLTYDEEYNFENEGEDEAMFVEYRKQLKLLLDRLAQVSPELLLASVRRVFSSTLQNWQTTRFMEVEVAIRLLYMLAEALPVSHGAHFSGDVSKASALQDMMRTLVTSGVSSYQHTSVTLEFFETVVRYEKFFTVEPQHIPCVLMAFLDHRGLRHSSAKVRSRTAYLFSRFVKSLNKQMNPFIEDILNRIQDLLELSPPENGHQSLLSSDDQLFIYETAGVLIVNSEYPAERKQALMRNLLTPLMEKFKILLEKLMLAQDEERQASLADCLNHAVGFASRTSKAFSNKQTVKQCGCSEVYLDCLQTFLPALSCPLQKDILRSGVRTFLHRMIICLEEEVLPFIPSASEHMLKDCEAKDLQEFIPLINQITAKFKIQVSPFLQQMFMPLLHAIFEVLLRPAEENDQSAALEKQMLRRSYFAFLQTVTGSGMSEVIANQGAENVERVLVTVIQGAVEYPDPIAQKTCFIILSKLVELWGGKDGPVGFADFVYKHIVPACFLAPLKQTFDLADAQTVLALSECAVTLKTIHLKRGPECVQYLQQEYLPSLQVAPEIIQEFCQALQQPDAKVFKNYLKVFFQRAKP [XPOT]”, the melting temperature is 49.5 °C in the data set with HeLa Kyoto [1] (cell cycle stage: G1/S) and 50.1 °C in the data set with HeLa Kyoto [1] (cell cycle stage: mitosis). Moreover, the “solubility change mitosis (log2)” value in the data set on HeLa Kyoto [2] is -0.226. The values for the thermal stability score with HeLa Kyoto [3] (setting [5]) and with HeLa Kyoto [3] (cell cycle stage: mitosis) were 1.65 and 3.04, respectively. Moreover, the “solubility in G1/S (log2)” value in the data set with HeLa Kyoto [4] is -0.059.

Consider “MDETSPLVSPERAQPPDYTFPSGSGAHFPQVPGGAVRVAAAAGSGPSPPGSPGHDRERQPLLDRARGAAAQGQTQTVAAQAQALAAQAAAAAHAAQAHRERNEFPEDPEFEAVVRQAELAIERCIFPERIYQGSSGSYFVKDPQGRIIAVFKPKNEEPYGHLNPKWTKWLQKLCCPCCFGRDCLVLNQGYLSEAGASLVDQKLELNIVPRTKVVYLASETFNYSAIDRVKSRGKRLALEKVPKVGQRFNRIGLPPKVGSFQLFVEGYKDADYWLRRFEAEPLPENTNRQLLLQFERLVVLDYIIRNTDRGNDNWLIKYDCPMDSSSSRDTDWVVVKEPVIKVAAIDNGLAFPLKHPDSWRAYPFYWAWLPQAKVPFSQEIKDLILPKISDPNFVKDLEEDLYELFKKDPGFDRGQFHKQIAVMRGQILNLTQALKDNKSPLHLVQMPPVIVETARSHQRSSSESYTQSFQSRKPFFSWW [PI4K2A]”, for which the results for the melting temperature with HeLa Kyoto [1] (cell cycle stage: G1/S) and in the data set with HeLa Kyoto [1] (cell cycle stage: mitosis) were 53.9 °C and 53.6 °C, respectively. For the same sequence, the “solubility change mitosis (log2)” value in the data set on HeLa Kyoto [2] was -0.137. The thermal stability score in the data set on HeLa Kyoto [3] (setting [5]) is 1.81; with HeLa Kyoto [3] (cell cycle stage: mitosis), -1.09. Besides, in the data set with HeLa Kyoto [4], the “solubility in G1/S (log2)” value was found to be 0.202.

Consider “MDFPCLWLGLLLPLVAALDFNYHRQEGMEAFLKTVAQNYSSVTHLHSIGKSVKGRNLWVLVVGRFPKEHRIGIPEFKYVANMHGDETVGRELLLHLIDYLVTSDGKDPEITNLINSTRIHIMPSMNPDGFEAVKKPDCYYSIGRENYNQYDLNRNFPDAFEYNNVSRQPETVAVMKWLKTETFVLSANLHGGALVASYPFDNGVQATGALYSRSLTPDDDVFQYLAHTYASRNPNMKKGDECKNKMNFPNGVTNGYSWYPLQGGMQDYNYIWAQCFEITLELSCCKYPREEKLPSFWNNNKASLIEYIKQVHLGVKGQVFDQNGNPLPNVIVEVQDRKHICPYRTNKYGEYYLLLLPGSYIINVTVPGHDPHITKVIIPEKSQNFSALKKDILLPFQGQLDSIPVSNPSCPMIPLYRNLPDHSAATKPSLFLFLVSLLHIFFK”, for which the melting temperature with HeLa Kyoto [1] (cell cycle stage: G1/S) worked out at 57.6 °C; in the data set with HeLa Kyoto [1] (cell cycle stage: mitosis), 56.3 °C. Moreover, the “solubility change mitosis (log2)” value in the data set with HeLa Kyoto [2] is -0.0348. The thermal stability score in the data set on HeLa Kyoto [3] (setting [5]) is 2.04; in the data set on HeLa Kyoto [3] (cell cycle stage: mitosis), 3.27. The “solubility in G1/S (log2)” value with HeLa Kyoto [4] is 0.0898.

Regarding “MDFSRNLYDIGEQLDSEDLASLKFLSLDYIPQRKQEPIKDALMLFQRLQEKRMLEESNLSFLKELLFRINRLDLLITYLNTRKEEMERELQTPGRAQISAYRVMLYQISEEVSRSELRSFKFLLQEEISKCKLDDDMNLLDIFIEMEKRVILGEGKLDILKRVCAQINKSLLKIINDYEEFSKERSSSLEGSPDEFSNGEELCGVMTISDSPREQDSESQTLDKVYQMKSKPRGYCLIINNHNFAKAREKVPKLHSIRDRNGTHLDAGALTTTFEELHFEIKPHDDCTVEQIYEILKIYQLMDHSNMDCFICCILSHGDKGIIYGTDGQEAPIYELTSQFTGLKCPSLAGKPKVFFIQACQGDNYQKGIPVETDSEEQPYLEMDLSSPQTRYIPDEADFLLGMATVNNCVSYRNPAEGTWYIQSLCQSLRERCPRGDDILTILTEVNYEVSNKDDKKNMGKQMPQPTFTLRKKLVFPSD [CASP8]”, the figures for the melting temperature in the data set with HeLa Kyoto [1] (cell cycle stage: G1/S) and in the data set on HeLa Kyoto [1] (cell cycle stage: mitosis) were 48.5 °C and 48.7 °C, respectively. For the same sequence, the “solubility change mitosis (log2)” value in the data set on HeLa Kyoto [2] is -0.167. Also, the results for the thermal stability score in the data set with HeLa Kyoto [3] (setting [5]) and in the data set with HeLa Kyoto [3] (cell cycle stage: mitosis) were 0.959 and 2, respectively. For the same sequence, the “solubility in G1/S (log2)” value in the data set with HeLa Kyoto [4] is 0.075.

On to “MDFTAQPKPATALCGVVSADGKIAYPPGVKEITDKITTDEMIKRLKMVVKTFMDMDQDSEDEKQQYLPLALHLASEFFLRNPNKDVRLLVACCLADIFRIYAPEAPYTSHDKLKDIFLFITRQLKGLEDTKSPQFNRYFYLLENLAWVKSYNICFELEDCNEIFIQLFRTLFSVINNSHNKKVQMHMLDLMSSIIMEGDGVTQELLDSILINLIPAHKNLNKQSFDLAKVLLKRTVQTIEACIANFFNQVLVLGRSSVSDLSEHVFDLIQELFAIDPHLLLSVMPQLEFKLKSNDGEERLAVVRLLAKLFGSKDSDLATQNRPLWQCFLGRFNDIHVPVRLESVKFASHCLMNHPDLAKDLTEYLKVRSHDPEEAIRHDVIVTIITAAKRDLALVNDQLLGFVRERTLDKRWRVRKEAMMGLAQLYKKYCLHGEAGKEAAEKVSWIKDKLLHIYYQNSIDDKLLVEKIFAQYLVPHNLETEERMKCLYYLYASLDPNAVKALNEMWKCQNMLRSHVRELLDLHKQPTSEANCSAMFGKLMTIAKNLPDPGKAQDFVKKFNQVLGDDEKLRSQLELLISPTCSCKQADICVREIARKLANPKQPTNPFLEMVKFLLERIAPVHIDSEAISALVKLMNKSIEGTADDEEEGVSPDTAIRSGLELLKVLSFTHPTSFHSAETYESLLQCLRMEDDKVAEAAIQIFRNTGHKIETDLPQIRSTLIPILHQKAKRGTPHQAKQAVHCIHAIFTNKEVQLAQIFEPLSRSLNADVPEQLITPLVSLGHISMLAPDQFASPMKSVVANFIVKDLLMNDRSTGEKNGKLWSPDEEVSPEVLAKVQAIKLLVRWLLGMKNNQSKSANSTLRLLSAMLVSEGDLTEQKRISKSDMSRLRLAAGSAIMKLAQEPCYHEIITPEQFQLCALVINDECYQVRQIFAQKLHKALVKLLLPLEYMAIFALCAKDPVKERRAHARQCLLKNISIRREYIKQNPMATEKLLSLLPEYVVPYMIHLLAHDPDFTRSQDVDQLRDIKECLWFMLEVLMTKNENNSHAFMKKMAENIKLTRDAQSPDESKTNEKLYTVCDVALCVINSKSALCNADSPKDPVLPMKFFTQPEKDFCNDKSYISEETRVLLLTGKPKPAGVLGAVNKPLSATGRKPYVRSTGTETGSNINVNSELNPSTGNRSREQSSEAAETGVSENEENPVRIISVTPVKNIDPVKNKEINSDQATQGNISSDRGKKRTVTAAGAENIQQKTDEKVDESGPPAPSKPRRGRRPKSESQGNATKNDDLNKPINKGRKRAAVGQESPGGLEAGNAKAPKLQDLAKKAAPAERQIDLQR [PDS5A]”, for which the melting temperature came to 47.2 °C in the data set with HeLa Kyoto [1] (cell cycle stage: G1/S) and 48.7 °C in the data set with HeLa Kyoto [1] (cell cycle stage: mitosis). The “solubility change mitosis (log2)” value in the data set with HeLa Kyoto [2] is -0.126. Besides, the thermal stability score in the data set on HeLa Kyoto [3] (setting [5]) amounted to 5.43; with HeLa Kyoto [3] (cell cycle stage: mitosis), 11.2. Also, the “solubility in G1/S (log2)” value in the data set with HeLa Kyoto [4] was -0.0007.

As to “MDGEEKTYGGCEGPDAMYVKLISSDGHEFIVKREHALTSGTIKAMLSGPGQFAENETNEVNFREIPSHVLSKVCMYFTYKVRYTNSSTEIPEFPIAPEIALELLMAANFLDC [TCEB1]”, the melting temperature in the data set with HeLa Kyoto [1] (cell cycle stage: G1/S) came to 52.2 °C; in the data set on HeLa Kyoto [1] (cell cycle stage: mitosis), 52.3 °C. For the same sequence, the “solubility change mitosis (log2)” value in the data set on HeLa Kyoto [2] is -0.0906. The thermal stability score is -1.38 in the data set on HeLa Kyoto [3] (setting [5]) and -1.62 with HeLa Kyoto [3] (cell cycle stage: mitosis). In addition, the “solubility in G1/S (log2)” value in the data set with HeLa Kyoto [4] was 0.256.
